Laboratory results as given in patent publication US20190218277A1 (Chugai, published 2019).
Changes are numbered by the printed parent chain. Where two headings read alike, the source gives them in different places.

What was measured:
human C1q (Calbiochem) = human C1q (Calbiochem) (human, UniProt P02745 23-245; P02746 28-253; P02747 29-245); experiment: ELISA: antibody coated on the plate at the concentration shown, human C1q added, detected with HRP anti-human C1q, OD 450 nm
human FcγRIIIb (NA1) = biological target: T1, human FcγRIIIb (NA1) (human, UniProt O75015 17-200); experiment: SPR (Biacore T200, pH 7.4, 25 °C): His-tagged FcγR captured by anti-His antibody; antibody injected at 100 nM alone (Ab alone) or as 1:1 complex with trimeric CD154 (CD154 IC); binding level / capture level [G]
T1 construct: also called human FcγR3b allelic variant NA1
T1 chain: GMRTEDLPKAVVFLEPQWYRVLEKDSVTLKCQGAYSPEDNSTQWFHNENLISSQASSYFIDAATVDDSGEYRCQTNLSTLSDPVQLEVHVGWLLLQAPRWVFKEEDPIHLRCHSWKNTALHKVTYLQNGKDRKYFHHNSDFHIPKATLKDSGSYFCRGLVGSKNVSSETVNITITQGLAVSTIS

mouse FcγRIII = biological target: T2, mouse FcγRIII (mouse, UniProt P08508 31-215); experiment: SPR (Biacore T200, pH 7.4, 25 °C): His-tagged FcγR captured by anti-His antibody; antibody injected at 100 nM alone (Ab alone) or as 1:1 complex with trimeric CD154 (CD154 IC); binding level / capture level [C]
T2 construct: also called mFcγRIII; mouse FcγR3
T2 chain: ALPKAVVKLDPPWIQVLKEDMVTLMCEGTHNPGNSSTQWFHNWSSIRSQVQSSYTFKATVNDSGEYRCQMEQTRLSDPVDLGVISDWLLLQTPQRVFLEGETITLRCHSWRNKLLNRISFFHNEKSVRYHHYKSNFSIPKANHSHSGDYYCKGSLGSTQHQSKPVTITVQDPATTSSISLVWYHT

mouse FcγRIV = biological target: T3, mouse FcγRIV (mouse, UniProt A0A0B4J1G0 21-203); experiment: SPR (Biacore T200, pH 7.4, 25 °C): His-tagged FcγR captured by anti-His antibody; antibody injected at 100 nM alone (Ab alone) or as 1:1 complex with trimeric CD154 (CD154 IC); binding level / capture level [D]
T3 construct: also called mFcγRIV; mouse FcγR4
T3 sequence: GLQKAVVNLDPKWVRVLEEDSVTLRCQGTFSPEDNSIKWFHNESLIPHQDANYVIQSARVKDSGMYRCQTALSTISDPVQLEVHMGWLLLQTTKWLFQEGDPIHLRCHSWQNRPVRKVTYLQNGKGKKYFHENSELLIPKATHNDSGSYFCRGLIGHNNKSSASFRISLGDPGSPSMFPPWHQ

human FcγRIIIa (158V) = biological target: T4, human FcγRIIIa (158V) (human, UniProt P08637 17-208); experiment: SPR (Biacore T200, pH 7.4, 25 °C): His-tagged FcγR captured by anti-His antibody; antibody injected at 100 nM alone (Ab alone) or as 1:1 complex with trimeric CD154 (CD154 IC); binding level / capture level [F]
T4 construct: also called human FcγR3a allelic variant 158V

mouse FcγRI = biological target: T5, mouse FcγRI (mouse, UniProt P26151 25-297); experiment: SPR (Biacore T200, pH 7.4, 25 °C): His-tagged FcγR captured by anti-His antibody; antibody injected at 100 nM alone (Ab alone) or as 1:1 complex with trimeric CD154 (CD154 IC); binding level / capture level [A]
T5 construct: also called mFcγRI; mouse FcγR1
T5 sequence: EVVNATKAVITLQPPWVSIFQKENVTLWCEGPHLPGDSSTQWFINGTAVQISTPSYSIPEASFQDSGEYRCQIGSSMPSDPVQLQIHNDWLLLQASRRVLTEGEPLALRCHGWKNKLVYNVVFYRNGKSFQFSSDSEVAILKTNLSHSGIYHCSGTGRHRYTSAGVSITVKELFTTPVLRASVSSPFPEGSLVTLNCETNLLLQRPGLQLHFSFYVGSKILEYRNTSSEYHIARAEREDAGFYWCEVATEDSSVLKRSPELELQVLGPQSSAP

human FcγRIIb = biological target: T6, human FcγRIIb (human, UniProt P31994 43-217); experiment: SPR (Biacore T200, pH 7.4, 25 °C): His-tagged FcγR captured by anti-His antibody; antibody injected at 100 nM alone (Ab alone) or as 1:1 complex with trimeric CD154 (CD154 IC); binding level / capture level [D]
T6 construct: also called human FcγR2b
T6 sequence: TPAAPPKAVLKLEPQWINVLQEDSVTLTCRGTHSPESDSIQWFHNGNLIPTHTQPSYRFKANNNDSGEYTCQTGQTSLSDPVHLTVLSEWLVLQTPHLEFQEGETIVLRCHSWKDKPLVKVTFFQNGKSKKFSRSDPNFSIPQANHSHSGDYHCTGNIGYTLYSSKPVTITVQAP

human FcγRIa = biological target: T7, human FcγRIa (human, UniProt P12314 16-292); experiment: SPR (Biacore T200, pH 7.4, 25 °C): His-tagged FcγR captured by anti-His antibody; antibody injected at 100 nM alone (Ab alone) or as 1:1 complex with trimeric CD154 (CD154 IC); binding level / capture level [A]
T7 construct: also called human FcγR1a
T7 sequence (P12314 16-292 limits assumed): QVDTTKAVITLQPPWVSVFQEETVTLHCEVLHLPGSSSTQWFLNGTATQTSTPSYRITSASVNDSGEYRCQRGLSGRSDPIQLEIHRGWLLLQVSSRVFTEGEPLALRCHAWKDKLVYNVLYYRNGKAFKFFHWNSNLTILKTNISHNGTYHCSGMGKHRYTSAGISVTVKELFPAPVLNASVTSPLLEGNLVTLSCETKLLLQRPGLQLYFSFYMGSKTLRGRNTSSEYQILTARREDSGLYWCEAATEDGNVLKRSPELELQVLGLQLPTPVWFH

[1] = biological target: T8, Recombinant soluble E protein (0.8E-His) from DENV-3 (DENV-3, UniProt P27915 281-673)
T8 construct: also called DENV-3 E protein; DV3

[2] = biological target: T9, Recombinant soluble E protein (0.8E-His) from DENV-4 (DENV-4, UniProt P09866 280-674); experiment: SPR, Biacore T200
T9 construct: also called DENV-4 E protein; DV4

[3] = biological target: T10, Recombinant soluble E protein (0.8E-His) from DENV-2 (DENV-2, UniProt P14340 281-675); experiment: SPR, Biacore T200
T10 construct: also called DENV-2 E protein; DV2

[4] = biological target: T11, Recombinant soluble E protein (0.8E-His) from DENV-1 (DENV-1, UniProt P27909 281-675)
T11 construct: also called DENV-1 E protein; DV1

[5] = biological target: T9, Recombinant soluble E protein …
[6] = biological target: T11, Recombinant soluble E protein …; remark: listed apart in the source
[7] = biological target: T8, Recombinant soluble E protein …; remark: listed apart in the source
[8] = biological target: T10, Recombinant soluble E protein …

Sequence of human C1q (Calbiochem) (P02745 23-245 limits assumed, chain 1 of 3): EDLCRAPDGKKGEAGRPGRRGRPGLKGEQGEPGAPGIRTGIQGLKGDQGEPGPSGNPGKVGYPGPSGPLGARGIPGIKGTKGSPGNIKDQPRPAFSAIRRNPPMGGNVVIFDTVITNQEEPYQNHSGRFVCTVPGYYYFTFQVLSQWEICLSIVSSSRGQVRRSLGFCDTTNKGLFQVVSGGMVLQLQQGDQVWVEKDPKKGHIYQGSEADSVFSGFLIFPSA
Sequence of human C1q (Calbiochem) (P02746 28-253 limits assumed, chain 2 of 3): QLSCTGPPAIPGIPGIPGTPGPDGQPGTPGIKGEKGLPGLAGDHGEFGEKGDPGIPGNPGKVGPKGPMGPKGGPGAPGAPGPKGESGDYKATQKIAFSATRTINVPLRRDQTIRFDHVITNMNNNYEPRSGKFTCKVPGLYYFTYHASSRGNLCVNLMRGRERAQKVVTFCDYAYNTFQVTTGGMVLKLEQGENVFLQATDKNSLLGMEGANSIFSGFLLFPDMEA
Sequence of human C1q (Calbiochem) (P02747 29-245 limits assumed, chain 3 of 3): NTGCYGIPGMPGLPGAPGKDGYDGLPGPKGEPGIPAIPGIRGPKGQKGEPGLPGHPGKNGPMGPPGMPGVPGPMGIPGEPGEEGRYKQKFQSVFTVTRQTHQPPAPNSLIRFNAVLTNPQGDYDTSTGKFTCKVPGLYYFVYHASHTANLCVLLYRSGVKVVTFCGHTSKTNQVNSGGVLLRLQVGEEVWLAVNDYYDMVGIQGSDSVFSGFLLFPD

B1: Anti-CD154 antibody (SLAPH0336a/SLAPL0336a) with Fc variant LALA+KEES (SG1097) (antibody, human IgG1, kappa, L234A L235A)
heavy: EVQLVESGGGSVKPGGSLKLSCAASGFTFSDHYMYWVRQTPEKRLEWVAIISGGGSYTSYPDSMKGRFTISRDNAKNILHLQMSSLKSEDTAMYYCTRESNGKPGFAYWGQGTLVTVSAASTKGPSVFPLAPSSKSTSGGTAALGCLVKDYFPEPVTVSWNSGALTSGVHTFPAVLQSSGLYSLSSVVTVPSSSLGTQTYICNVNHKPSNTKVDKRVEPKSCDKTHTCPPCPAPEAAGGPSVFLFPPKPKDTLMISRTPEVTCVVVDVSHEDPEVKFNWYVDGVEVHNAKTKPREEQYNSTYRVVSVLTVLHQDWLNGKEYKCKVSNEALPAPISKTISKAKGQPREPQVYTLPPSREEMTKNQVSLTCLVKGFYPSDIAVEWESNGQPENNYKTTPPVLDSDGSFFLYSKLTVDKSRWQQGNVFSCSVMHEALHNHYTQKSLSLSP
light: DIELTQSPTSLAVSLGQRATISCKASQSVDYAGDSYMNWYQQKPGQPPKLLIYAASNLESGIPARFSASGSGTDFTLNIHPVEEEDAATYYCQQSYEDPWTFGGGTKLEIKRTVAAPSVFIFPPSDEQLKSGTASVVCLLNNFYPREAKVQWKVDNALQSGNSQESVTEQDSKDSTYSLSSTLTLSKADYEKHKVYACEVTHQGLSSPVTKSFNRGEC
B1: binds (human C1q (Calbiochem)).

B2: Anti-CD154 antibody (SLAPH0336a/SLAPL0336a) with Fc variant LALA+KMES (SG1098) (antibody, human IgG1, kappa, L234A L235A)
heavy: B1 heavy with E328M
light: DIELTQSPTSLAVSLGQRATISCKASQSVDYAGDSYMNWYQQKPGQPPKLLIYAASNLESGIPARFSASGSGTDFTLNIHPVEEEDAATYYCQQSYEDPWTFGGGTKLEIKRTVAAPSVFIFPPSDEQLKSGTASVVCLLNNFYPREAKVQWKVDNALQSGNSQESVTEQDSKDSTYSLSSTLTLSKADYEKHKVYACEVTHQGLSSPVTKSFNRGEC
B2: binds (human C1q (Calbiochem)).

B3: EFT (antibody, human IgG1, kappa)
heavy chain: B1 heavy with A236L, A237L, S269E, H270F, S326T, E328K, S335E
light chain: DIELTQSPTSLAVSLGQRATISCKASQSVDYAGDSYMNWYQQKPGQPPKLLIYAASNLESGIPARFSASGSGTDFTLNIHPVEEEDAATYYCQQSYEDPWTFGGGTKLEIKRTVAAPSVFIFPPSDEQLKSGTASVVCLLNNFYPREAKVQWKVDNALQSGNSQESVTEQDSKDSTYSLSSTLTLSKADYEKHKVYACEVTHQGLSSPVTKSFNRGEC
notes: also called Anti-CD154 antibody (SLAPH0336a/SLAPL0336a) with Fc variant EFT (SG1087); SG1087
B3: no binding (tested: 100 nM) (human FcγRIIIb (NA1)); binds (mouse FcγRIII); binds (mouse FcγRIV). B3: binds (human FcγRIIIa (158V)); binds (mouse FcγRI); binds (human FcγRIIb). B3: binds (human FcγRIa).

B4: LALA + KDES (antibody, human IgG1, kappa, L234A L235A)
heavy chain: B1 heavy with E328D
light chain: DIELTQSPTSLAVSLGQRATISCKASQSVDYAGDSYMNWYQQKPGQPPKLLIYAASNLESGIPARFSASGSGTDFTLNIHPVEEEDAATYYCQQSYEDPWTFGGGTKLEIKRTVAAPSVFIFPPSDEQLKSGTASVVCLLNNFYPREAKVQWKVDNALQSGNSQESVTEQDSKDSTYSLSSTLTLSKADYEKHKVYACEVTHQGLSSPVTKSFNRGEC
notes: also called Anti-CD154 antibody (SLAPH0336a/SLAPL0336a) with Fc variant LALA+KDES (SG1096); SG1096
B4: binds (human C1q (Calbiochem)).

B5: DG_3CH1000-SG1106/3CL-SK1 (antibody)
heavy: QVQLVQSGPDVEKPGASVKVSCKASGYTFTSYYMHWVRQAPGQGLEWMGVINPRGGSRRSAQKFQGRITMTRDTSTSTVYMELSSLRSEDTAVYYCARGGRALFYDSYTTPFDGGSWWFDPWGQGSLVTVSSASTKGPSVFPLAPSSKSTSGGTAALGCLVKDYFPEPVTVSWNSGALTSGVHTFPAVLQSSGLYSLSSVVTVPSSSLGTQTYICNVNHKPSNTKVDKRVEPKSCDKTHTCPPCPAPEAAGGPSVFLFPPKPKDTLMISRTPEVTCVVVDVSHEDPEVKFNWYVDGVEVHNAKTKPREEQYNSTYRVVSVLTVLHQDWLNGKEYKCKVSNAALPAPISKTISKAKGQPREPQVYTLPPSREEMTKNQVSLTCLVKGFYPSDIAVEWESNGQPENNYKTTPPVLDSDGSFFLYSKLTVDKSRWQQGNVFSCSVLHEALHAHYTRKELSLSP
light: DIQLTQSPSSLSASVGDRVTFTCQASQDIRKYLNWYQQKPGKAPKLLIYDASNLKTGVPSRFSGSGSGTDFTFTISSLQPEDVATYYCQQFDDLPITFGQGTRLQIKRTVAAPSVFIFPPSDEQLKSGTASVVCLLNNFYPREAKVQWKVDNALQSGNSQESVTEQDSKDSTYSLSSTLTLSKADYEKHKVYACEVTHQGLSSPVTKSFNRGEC
In the case of B5, the Kd [1] is reported as 0.000299 nM, the binding result [2] is reported as “binds” and the binding result [3] is reported as “binds”. The Kd [4] was 1.84 nM.

B6: DG_3CH953-SG1106/3CL012-SK1 (antibody)
heavy: B5 heavy with Y32N, M34I
light: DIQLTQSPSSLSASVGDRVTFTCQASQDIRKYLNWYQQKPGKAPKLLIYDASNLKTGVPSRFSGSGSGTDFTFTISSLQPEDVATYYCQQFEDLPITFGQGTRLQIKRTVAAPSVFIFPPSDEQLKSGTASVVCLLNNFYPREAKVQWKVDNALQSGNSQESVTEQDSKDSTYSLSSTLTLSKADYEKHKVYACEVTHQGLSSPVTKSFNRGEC
With B6 the Kd [1] was 0.0106 nM, the binding result [2] was “binds” and the binding result [3] was “binds”. It also gave a Kd [4] of 1.89 nM.

B7: DG_3CH-SG182/3CL-SK1 (antibody, human IgG1, kappa, V domains shown)
VH: QVQLVQSGPDVEKPGASVKVSCKASGYTFTSNYIHWVRQAPGQGLEWMGVINPRGGSTASAQKFQGRITMTRDTSTSTVYMELSSLRSDDTAVYYCARGGRALFYDSYTTPRDGGSWWFDPWGQGSLVTVSS
VL: DIQLTQSPSSLSASVGDRVTFTCQASQDIRKYLNWYQQKPGKAPKLLIYDASNLKTGVPSRFSGSGSGTDFTFTISSLQPEDVATYYCQQFDDLPITFGQGTRLQIKR
B7 gave a Kd [5] of 16.9 nM, a Kd [6] of 32.1 nM and a Kd [7] of 6.07 nM. For the same binder, the Kd [4] was 22.5 nM.

B8: DG_3CH-SG182/3CL499-SK1 (antibody, V domains shown)
VH: B7 VH
VL: B7 VL with T56F, D93A
In the case of B8, the Kd [5] is reported as 8.35 nM, the Kd [8] is reported as 4.73 nM and the Kd [6] is reported as 11.1 nM. The Kd [7] was 4.03 nM.

B9: DG_3CH-SG182/3CL563-SK1 (antibody, V domains shown)
VH: B7 VH
VL: B7 VL with K31Q, T56F, D92S, D93A
B9 gave a Kd [5] of 11.8 nM, a Kd [8] of 4.43 nM and a Kd [6] of 13.4 nM. The Kd [7] was 3.52 nM.

B10: DG_3CH953-SG182/3CL499-SK1 (antibody, V domains shown)
VH: B7 VH with T58R, A59R, D89E, R112F
VL: B7 VL with T56F, D93A
Work on B10 yielded a Kd [5] of 5.99 nM, a Kd [8] of 0.905 nM and a Kd [6] of 1.46 nM. For the same binder, the Kd [7] was 0.211 nM.

B11: DG_3CH955-SG182/3CL-SK1 (antibody, V domains shown)
VH: B7 VH with T58R, A59R, D89E, G114L
VL: B7 VL
In the case of B11, the Kd [5] is reported as 7.8 nM, the Kd [8] is reported as 0.794 nM and the Kd [6] is reported as 1.13 nM. For the same binder, the Kd [7] was 0.205 nM.

B12: DG_3CH954-SG182/3CL-SK1 (antibody, V domains shown)
VH: B7 VH with T58R, A59R, D89E, G114D
VL: B7 VL
Binder B12 has a Kd [5] of 4.35 nM, a Kd [8] of 0.122 nM and a Kd [6] of 0.887 nM. The Kd [7] was 0.124 nM.
